In US20170334973A1 (INTEGRATED BIOTHERAPEUTICS, published 2017):
Changes are numbered by the printed parent chain.

Tests used:
MARV (Musoke strain) GP = target: T1, MARV (Musoke strain) GP (Marburg virus (MARV), Musoke strain, UniProt P35253 19-648); experiment: GP ELISA, purified mAb
T1 sequence: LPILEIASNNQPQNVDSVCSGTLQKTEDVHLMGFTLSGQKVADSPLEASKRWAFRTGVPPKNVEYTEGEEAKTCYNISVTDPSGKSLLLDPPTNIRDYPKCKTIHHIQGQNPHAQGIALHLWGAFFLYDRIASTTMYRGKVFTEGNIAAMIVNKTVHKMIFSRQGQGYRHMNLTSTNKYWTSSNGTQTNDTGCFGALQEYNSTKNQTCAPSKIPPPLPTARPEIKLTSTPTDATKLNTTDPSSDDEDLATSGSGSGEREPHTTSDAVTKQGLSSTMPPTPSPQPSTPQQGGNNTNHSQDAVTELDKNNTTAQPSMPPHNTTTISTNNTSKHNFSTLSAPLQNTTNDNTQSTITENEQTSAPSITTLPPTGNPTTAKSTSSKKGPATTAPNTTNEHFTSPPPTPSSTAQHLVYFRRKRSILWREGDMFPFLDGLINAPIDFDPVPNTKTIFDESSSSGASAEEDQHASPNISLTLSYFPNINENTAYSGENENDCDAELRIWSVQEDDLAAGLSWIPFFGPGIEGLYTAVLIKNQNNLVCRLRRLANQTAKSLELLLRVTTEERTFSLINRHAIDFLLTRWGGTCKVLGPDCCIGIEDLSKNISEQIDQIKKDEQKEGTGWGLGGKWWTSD

SUDV VLP = target: T2, SUDV VLP (Sudan virus (SUDV), UniProt Q66814 33-676); experiment: ELISA
T2 sequence: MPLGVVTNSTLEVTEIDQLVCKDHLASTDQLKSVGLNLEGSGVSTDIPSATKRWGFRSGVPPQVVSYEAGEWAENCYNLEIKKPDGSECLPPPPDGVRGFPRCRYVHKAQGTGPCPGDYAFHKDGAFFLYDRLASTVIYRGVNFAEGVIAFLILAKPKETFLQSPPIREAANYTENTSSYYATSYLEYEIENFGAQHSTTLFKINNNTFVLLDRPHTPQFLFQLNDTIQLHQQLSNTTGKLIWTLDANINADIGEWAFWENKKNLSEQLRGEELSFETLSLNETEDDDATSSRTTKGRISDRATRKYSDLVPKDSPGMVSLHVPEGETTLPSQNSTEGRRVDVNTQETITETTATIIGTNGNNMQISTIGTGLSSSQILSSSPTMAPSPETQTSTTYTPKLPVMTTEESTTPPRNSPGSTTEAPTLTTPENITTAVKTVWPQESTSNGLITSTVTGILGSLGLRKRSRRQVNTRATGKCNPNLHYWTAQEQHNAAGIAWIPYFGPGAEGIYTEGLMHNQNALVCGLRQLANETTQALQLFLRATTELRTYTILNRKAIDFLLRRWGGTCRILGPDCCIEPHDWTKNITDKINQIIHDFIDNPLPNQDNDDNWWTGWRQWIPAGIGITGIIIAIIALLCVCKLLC

EBOV VLP = target: T3, EBOV VLP (Ebola virus (EBOV), UniProt Q05320 33-676); experiment: ELISA
T3 sequence: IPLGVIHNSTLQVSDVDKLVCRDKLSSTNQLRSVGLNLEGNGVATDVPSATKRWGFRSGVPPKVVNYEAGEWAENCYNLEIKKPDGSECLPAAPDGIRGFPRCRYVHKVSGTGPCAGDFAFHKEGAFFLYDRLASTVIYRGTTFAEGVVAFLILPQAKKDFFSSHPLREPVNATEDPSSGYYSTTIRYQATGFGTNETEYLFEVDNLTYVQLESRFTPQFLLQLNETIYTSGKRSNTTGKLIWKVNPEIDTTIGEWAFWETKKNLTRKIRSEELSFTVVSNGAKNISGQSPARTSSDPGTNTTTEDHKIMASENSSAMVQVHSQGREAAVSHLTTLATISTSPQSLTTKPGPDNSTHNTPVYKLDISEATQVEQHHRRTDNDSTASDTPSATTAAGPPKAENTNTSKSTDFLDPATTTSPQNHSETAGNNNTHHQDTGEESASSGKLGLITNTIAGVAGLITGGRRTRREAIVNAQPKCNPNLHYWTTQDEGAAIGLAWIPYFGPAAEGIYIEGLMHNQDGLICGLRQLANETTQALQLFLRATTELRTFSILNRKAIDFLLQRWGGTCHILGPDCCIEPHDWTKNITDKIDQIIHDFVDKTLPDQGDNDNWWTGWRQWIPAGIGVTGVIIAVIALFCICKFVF

EBOV GPcl = target: T4, EBOV GPcl (Ebola virus (EBOV), UniProt Q05320 33-200; Q05320 502-632); experiment: ELISA
T4 sequence 1: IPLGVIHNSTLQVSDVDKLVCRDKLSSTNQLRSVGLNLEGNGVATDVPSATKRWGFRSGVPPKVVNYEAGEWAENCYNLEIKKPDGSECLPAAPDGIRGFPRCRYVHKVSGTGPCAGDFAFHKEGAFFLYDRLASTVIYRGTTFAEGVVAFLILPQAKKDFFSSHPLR
T4 sequence 2: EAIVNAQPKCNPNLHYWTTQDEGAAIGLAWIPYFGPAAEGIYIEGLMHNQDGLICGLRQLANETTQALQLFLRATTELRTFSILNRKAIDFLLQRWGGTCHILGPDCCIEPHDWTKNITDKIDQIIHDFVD

MARV VLP = target: T5, MARV VLP (Marburg virus (MARV), UniProt P35253 19-681); experiment: ELISA
T5 sequence: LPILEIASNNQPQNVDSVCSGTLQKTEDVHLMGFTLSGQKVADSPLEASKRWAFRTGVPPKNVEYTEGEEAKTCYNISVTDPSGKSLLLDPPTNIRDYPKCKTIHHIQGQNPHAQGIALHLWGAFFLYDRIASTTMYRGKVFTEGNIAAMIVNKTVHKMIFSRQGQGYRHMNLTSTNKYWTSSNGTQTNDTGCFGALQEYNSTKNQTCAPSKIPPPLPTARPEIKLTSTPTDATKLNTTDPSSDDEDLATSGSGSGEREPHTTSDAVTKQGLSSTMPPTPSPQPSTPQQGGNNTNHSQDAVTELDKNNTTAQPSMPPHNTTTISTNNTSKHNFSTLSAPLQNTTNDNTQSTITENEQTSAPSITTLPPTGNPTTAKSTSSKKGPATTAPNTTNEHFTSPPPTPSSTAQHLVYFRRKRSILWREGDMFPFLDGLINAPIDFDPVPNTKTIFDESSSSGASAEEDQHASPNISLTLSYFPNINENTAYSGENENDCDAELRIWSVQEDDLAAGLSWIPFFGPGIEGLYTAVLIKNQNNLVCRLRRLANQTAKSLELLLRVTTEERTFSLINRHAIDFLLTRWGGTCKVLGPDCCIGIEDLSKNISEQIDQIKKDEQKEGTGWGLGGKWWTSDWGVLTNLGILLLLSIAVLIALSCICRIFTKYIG

EBOV soluble GP (sGP) = target: T6, EBOV soluble GP (sGP) (Ebola virus (EBOV), UniProt P60170 33-324); experiment: ELISA
T6 sequence: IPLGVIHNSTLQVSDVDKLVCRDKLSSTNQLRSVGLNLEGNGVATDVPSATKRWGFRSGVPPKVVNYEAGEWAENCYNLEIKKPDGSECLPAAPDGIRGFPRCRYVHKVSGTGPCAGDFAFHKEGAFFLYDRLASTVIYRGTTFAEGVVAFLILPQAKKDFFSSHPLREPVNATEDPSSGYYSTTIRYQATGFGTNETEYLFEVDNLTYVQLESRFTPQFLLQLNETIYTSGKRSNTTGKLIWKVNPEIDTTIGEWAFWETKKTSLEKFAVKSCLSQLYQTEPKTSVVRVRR

B1: FVM09 (antibody, V domains shown)
VH: EVQLVQSGAEVKRPGESLTISCKTSGYSFTDSWVAWVRQMPGKGLEWLGSIYPGDSETKYNPSFQGHVTISADKSVTTTYLKWSSLKASDTATYYCVKGSETWGQGVLVTVSS
VL: QLVLTQPASLSASPGASASLTCTFSGGINVAGYNILWYQQKAGSPPRYLLRYKSDSTKDQGSGVPSRFSGSKDASANTGILRISGLQSEDEADYYCAIGHSSGWIFGGGTRLTVL
binding result (MARV (Musoke strain) GP): no binding | EC50 (SUDV VLP): 21.3 nM | EC50 (EBOV VLP): 24.2 nM | binding result (EBOV GPcl): no binding

B2: FVM13 (antibody, V domains shown)
VH: EVQLVQSGAEVKRPGESLKISCKTSGYTFTSSWISWVRQMPGKGLEWLGSIYPGDSDTRYNPSFQGHVTISADTSIITTHLQWSSLKASDTATYYCVKGSETWGQGVLVTVSS
VL: B1 VL with Q1K, L2P, V3M, A8T
binding result (MARV (Musoke strain) GP): no binding | EC50 (SUDV VLP): 0.144 nM | EC50 (EBOV VLP): 0.198 nM

B3: FVM20 (antibody, V domains shown)
VH: B1 VH with Q6E, D31G, V34I, A35S
VL: B1 VL with Q1N, L2F, V3M, P7S, N34H, L36F, K41N, A42P, T57E
binding result (MARV (Musoke strain) GP): no binding | EC50 (SUDV VLP): 32.9 nM | EC50 (EBOV VLP): 1.29 nM

B4: FVM02P (antibody, V domains shown)
VH: EVQLVESGGGLVQPGGSLRLSCAASGFTGFTFSDYAFYWVRQAPGKGLEWVGFIRGKAYGGTADYAASVKGRFTISRDNSKNTAYLQMSSLKTEDSAVYYCTSQGVTVATPYHWGQGVLVTVSS
VL: DIVLTQSPLSLPVTPGEPASISCRSSQSLLHSGGKTYLYWYLQKPGQSPQLLIHEVSNRASGVPDRFSGSGSGTDFTLKISRVEAEDVGVYYCMQGIQLPLTFGGGTKVEIKR
EC50 (MARV (Musoke strain) GP): 1 µg/mL | EC50 (SUDV VLP): 0.351 nM | EC50 (EBOV VLP): 0.489 nM | EC50 (MARV VLP): 7.73 nM | binding result (EBOV soluble GP (sGP)): no binding

B5: FVM01P (antibody, V domains shown)
VH: QVQLQESGPGLVKPSETLSLTCTVSGASISNYRWNWIRQPPGKGLEWIGEINGYSGSTNYNPSLKSRVTISKDASKNQFSLKLTSVTAADTAVYYCPIIGGFTLEWFDVWGPGVLVTVSS
VL: DVVLTQSPSSLSASVGDRVTITCRASQGIRNYLNWYQQKPRKAPKLLIYAASSLQSGVPSRFSGSGSGTEFTLTISSLQAEDFATYYCLQGYRTPFTFGPGTKLDIKR
binding result (MARV (Musoke strain) GP): no binding | EC50 (SUDV VLP): 0.319 nM | EC50 (EBOV VLP): 0.459 nM

B6: FVM03 (antibody, V domains shown)
VH: QVQLQESGPVLVKPSETLSLTCAVSGYSISSAYAWSWIRQPPGKGLEWVGYVGSSSDYNPSLKSRVTISRDTSKNRIFLNLRSLTAADTAVYYCARDRANNSMDVWGRGVLVTVSS
VL: EIVLTQSPDSLGVSLGERVTINCKSSQSLLYSSNNKNYLAWYQQKPGQAPKLLIYWASTRESGVPNRFSGSGSGTDFTLTISGLQAEDVAVYYCQQYYSTPLTFGQGTKVEIKR
EC50 (MARV VLP): 0.793 nM
